# Test results reported in patent US5821075.
# B1: PTPL1 protein tyrosine phosphatase (enzyme)
# chain: MVQPEQAPKVLNVVVDPQGRGAPEIKATTATSVCPSPFKMKPIGLQERRGSNVSLTLDMSSLGNIEPFVSIPTPREKVAMEYLQSASRILDKVQLRDVVASSHLLQSEFMEIPMNFVDPKEIDIPRHGTKNRYKTILPNPLSRVCLRPKNVTDSLSTYINANYIRGYSGKEKAFIATQGPMINTVDDFWQMVWQEDSPVIVMITKLKEKNEKCVLYWPEKRGIYGKVEVLVISVNECDNYTIRNLVLKQGSHTQHVSNYWYTSWPDHKTPDSAQPLLQLMLDVEEDRLASQGPRAVVVHCSAGIGRTGCFIATSIGCQQLKEEGVVDALSIVCQLRMDRGGMVQTSEQYEFVHHALCLYESRLSAETVQ
# Biological target: myelin basic protein, 32P-labeled on tyrosine residues
binder,measurement,value
B1,"dephosphorylation (radioactivity released as inorganic phosphate, percentage of total input)",> 30%
